Reference: the supplement of paper PMC10724198

Columns and labels:
Saccharomyces cerevisiae [1] = assay: protein stability index of tFT-peptide fusion in wild type (PSI (0-1 scale)); higher = more stable (slower turnover); details: genetic background: wild type
Saccharomyces cerevisiae [2] = assay: protein stability index of tFT-peptide fusion in deletion strain of DOA10 (PSI (0-1 scale)); higher = more stable (slower turnover)
Experimental: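 MPS profiling in S. cerevisiae of two library types built from selected 12-aa C-degron peptides (IN1, IN2, LN1, LN3, VN2, R1-R5, W1-W3, Atg1 and Rpa12 C-termini): saturation mutagenesis libraries and C-terminal +1 capping libraries (13 aa). Each peptide is fused to the C-terminus of a sfGFP-mCherry timer, after a GGGS linker. Cells are FACS-sorted into 8 mCherry/sfGFP bins and sequenced. PSI runs from 0 (unstable) to 1 (stable), measured once in wild type and in the das1Δ or doa10Δ background.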
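Wherever protein stability index of tFT-peptide fusion in deletion strain of DOA10 is given: PSI per variant is the weighted mean of its sequencing read distribution over the sorted stability bins, counting only variants with over 10 reads summed across bins.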
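Wherever protein stability index of tFT-peptide fusion in wild type is given: PSI derived as read-weighted mean over the 8 sorting bins, only variants exceeding 10 total reads kept, mCherry placed adjacent to the peptide and sfGFP distal.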

## GHYMCSVGCWFR
Saccharomyces cerevisiae [1]
  protein stability index: 0.365
Saccharomyces cerevisiae [2]
  protein stability index: 0.643

## GLDMCSVGCWFR
Saccharomyces cerevisiae [1]
  protein stability index: 0.328
Saccharomyces cerevisiae [2]
  protein stability index: 0.689

## GLEMCSVGCWFR
Saccharomyces cerevisiae [1]
  protein stability index: 0.241
Saccharomyces cerevisiae [2]
  protein stability index: 0.658

## GLFMCSVGCWFR
Saccharomyces cerevisiae [1]
  protein stability index: 0.264
Saccharomyces cerevisiae [2]
  protein stability index: 0.549

## GLYFCSVGCWFR
Saccharomyces cerevisiae [1]
  protein stability index: 0.202
Saccharomyces cerevisiae [2]
  protein stability index: 0.607

## GLYMCDVGCWFR
Saccharomyces cerevisiae [1]
  protein stability index: 0.59
Saccharomyces cerevisiae [2]
  protein stability index: 0.699

## GLYMCSAGCWFR
Saccharomyces cerevisiae [1]
  protein stability index: 0.427
Saccharomyces cerevisiae [2]
  protein stability index: 0.696

## GLYMCSVGCLFR
Saccharomyces cerevisiae [1]
  protein stability index: 0.575
Saccharomyces cerevisiae [2]
  protein stability index: 0.654

## GLYMCSVGCNFR
Saccharomyces cerevisiae [1]
  protein stability index: 0.632
Saccharomyces cerevisiae [2]
  protein stability index: 0.648

## GLYMCSVGCWAR
Saccharomyces cerevisiae [1]
  protein stability index: 0.438
Saccharomyces cerevisiae [2]
  protein stability index: 0.5

## GLYMCSVGCWFRE
Saccharomyces cerevisiae [1]
  protein stability index: 0.453
Saccharomyces cerevisiae [2]
  protein stability index: 0.641

## GLYMCSVGCWFRM
Saccharomyces cerevisiae [1]
  protein stability index: 0.154
Saccharomyces cerevisiae [2]
  protein stability index: 0.374

## GLYMCSVGCWFRV
Saccharomyces cerevisiae [1]
  protein stability index: 0.155
Saccharomyces cerevisiae [2]
  protein stability index: 0.402

## GLYMCSVGCWFT
Saccharomyces cerevisiae [1]
  protein stability index: 0.423
Saccharomyces cerevisiae [2]
  protein stability index: 0.484

## GLYMCSVGCWMR
Saccharomyces cerevisiae [1]
  protein stability index: 0.253
Saccharomyces cerevisiae [2]
  protein stability index: 0.575

## GLYMCSVGCWPR
Saccharomyces cerevisiae [1]
  protein stability index: 0.64
Saccharomyces cerevisiae [2]
  protein stability index: 0.67

## GLYMCSVGCWQR
Saccharomyces cerevisiae [1]
  protein stability index: 0.629
Saccharomyces cerevisiae [2]
  protein stability index: 0.677

## GLYMCSVGFWFR
Saccharomyces cerevisiae [1]
  protein stability index: 0.364
Saccharomyces cerevisiae [2]
  protein stability index: 0.545

## GLYMCSVGPWFR
Saccharomyces cerevisiae [1]
  protein stability index: 0.656
Saccharomyces cerevisiae [2]
  protein stability index: 0.688

## GLYMCSVGQWFR
Saccharomyces cerevisiae [1]
  protein stability index: 0.636
Saccharomyces cerevisiae [2]
  protein stability index: 0.671

## GLYMCSVGWWFR
Saccharomyces cerevisiae [1]
  protein stability index: 0.499
Saccharomyces cerevisiae [2]
  protein stability index: 0.557

## GLYMCYVGCWFR
Saccharomyces cerevisiae [1]
  protein stability index: 0.223
Saccharomyces cerevisiae [2]
  protein stability index: 0.423

## GLYMQSVGCWFR
Saccharomyces cerevisiae [1]
  protein stability index: 0.287
Saccharomyces cerevisiae [2]
  protein stability index: 0.678

## GLYMTSVGCWFR
Saccharomyces cerevisiae [1]
  protein stability index: 0.275
Saccharomyces cerevisiae [2]
  protein stability index: 0.709

## GLYVCSVGCWFR
Saccharomyces cerevisiae [1]
  protein stability index: 0.2
Saccharomyces cerevisiae [2]
  protein stability index: 0.573

## HVTRLDAIYFRI
Saccharomyces cerevisiae [1]
  protein stability index: 0.343
Saccharomyces cerevisiae [2]
  protein stability index: 0.702

## IITLPMCPLLLR
Saccharomyces cerevisiae [1]
  protein stability index: 0.324
Saccharomyces cerevisiae [2]
  protein stability index: 0.597

## LVTRLDAIYFRI
Saccharomyces cerevisiae [1]
  protein stability index: 0.234
Saccharomyces cerevisiae [2]
  protein stability index: 0.604

## MVTRLDAIYFRI
Saccharomyces cerevisiae [1]
  protein stability index: 0.237
Saccharomyces cerevisiae [2]
  protein stability index: 0.653

## NLVSLPILLFFR
Saccharomyces cerevisiae [1]
  protein stability index: 0.0961
Saccharomyces cerevisiae [2]
  protein stability index: 0.629

## PITLPMCPLLLR
Saccharomyces cerevisiae [1]
  protein stability index: 0.471
Saccharomyces cerevisiae [2]
  protein stability index: 0.648

## PSLRVLLPLYFR
Saccharomyces cerevisiae [1]
  protein stability index: 0.285
Saccharomyces cerevisiae [2]
  protein stability index: 0.679

## PVTRLDAIYFRI
Saccharomyces cerevisiae [1]
  protein stability index: 0.425
Saccharomyces cerevisiae [2]
  protein stability index: 0.693

## RSCRVLLPLYFR
Saccharomyces cerevisiae [1]
  protein stability index: 0.275
Saccharomyces cerevisiae [2]
  protein stability index: 0.66

## RSLDVLLPLYFR
Saccharomyces cerevisiae [1]
  protein stability index: 0.244
Saccharomyces cerevisiae [2]
  protein stability index: 0.685

## RSLFVLLPLYFR
Saccharomyces cerevisiae [1]
  protein stability index: 0.265
Saccharomyces cerevisiae [2]
  protein stability index: 0.613

## RSLLVLLPLYFR
Saccharomyces cerevisiae [1]
  protein stability index: 0.344
Saccharomyces cerevisiae [2]
  protein stability index: 0.638

## RSLRDLLPLYFR
Saccharomyces cerevisiae [1]
  protein stability index: 0.507
Saccharomyces cerevisiae [2]
  protein stability index: 0.702

## RSLRELLPLYFR
Saccharomyces cerevisiae [1]
  protein stability index: 0.476
Saccharomyces cerevisiae [2]
  protein stability index: 0.698

## RSLRHLLPLYFR
Saccharomyces cerevisiae [1]
  protein stability index: 0.45
Saccharomyces cerevisiae [2]
  protein stability index: 0.693

## RSLRVGLPLYFR
Saccharomyces cerevisiae [1]
  protein stability index: 0.287
Saccharomyces cerevisiae [2]
  protein stability index: 0.665

## RSLRVKLPLYFR
Saccharomyces cerevisiae [1]
  protein stability index: 0.195
Saccharomyces cerevisiae [2]
  protein stability index: 0.667

## RSLRVLGPLYFR
Saccharomyces cerevisiae [1]
  protein stability index: 0.344
Saccharomyces cerevisiae [2]
  protein stability index: 0.687

## RSLRVLLDLYFR
Saccharomyces cerevisiae [1]
  protein stability index: 0.64
Saccharomyces cerevisiae [2]
  protein stability index: 0.654

## RSLRVLLPAYFR
Saccharomyces cerevisiae [1]
  protein stability index: 0.577
Saccharomyces cerevisiae [2]
  protein stability index: 0.65

## RSLRVLLPHYFR
Saccharomyces cerevisiae [1]
  protein stability index: 0.663
Saccharomyces cerevisiae [2]
  protein stability index: 0.683

## RSLRVLLPLLFR
Saccharomyces cerevisiae [1]
  protein stability index: 0.371
Saccharomyces cerevisiae [2]
  protein stability index: 0.661

## RSLRVLLPLYFP
Saccharomyces cerevisiae [1]
  protein stability index: 0.634
Saccharomyces cerevisiae [2]
  protein stability index: 0.657

## RSLRVLLPLYFRC
Saccharomyces cerevisiae [1]
  protein stability index: 0.218
Saccharomyces cerevisiae [2]
  protein stability index: 0.476

## RSLRVLLPLYFRY
Saccharomyces cerevisiae [1]
  protein stability index: 0.259
Saccharomyces cerevisiae [2]
  protein stability index: 0.606

## RSLRVLLPMYFR
Saccharomyces cerevisiae [1]
  protein stability index: 0.334
Saccharomyces cerevisiae [2]
  protein stability index: 0.658

## RSLRVLLPNYFR
Saccharomyces cerevisiae [1]
  protein stability index: 0.64
Saccharomyces cerevisiae [2]
  protein stability index: 0.673

## RSLRVLLPRYFR
Saccharomyces cerevisiae [1]
  protein stability index: 0.637
Saccharomyces cerevisiae [2]
  protein stability index: 0.664

## RSLRVLLPVYFR
Saccharomyces cerevisiae [1]
  protein stability index: 0.278
Saccharomyces cerevisiae [2]
  protein stability index: 0.632

## RSLRVLLPWYFR
Saccharomyces cerevisiae [1]
  protein stability index: 0.606
Saccharomyces cerevisiae [2]
  protein stability index: 0.666

## RSLRVLPPLYFR
Saccharomyces cerevisiae [1]
  protein stability index: 0.273
Saccharomyces cerevisiae [2]
  protein stability index: 0.697

## RSLRVLTPLYFR
Saccharomyces cerevisiae [1]
  protein stability index: 0.246
Saccharomyces cerevisiae [2]
  protein stability index: 0.68

## RSLYVLLPLYFR
Saccharomyces cerevisiae [1]
  protein stability index: 0.261
Saccharomyces cerevisiae [2]
  protein stability index: 0.619

## RVTMLDAIYFRI
Saccharomyces cerevisiae [1]
  protein stability index: 0.52
Saccharomyces cerevisiae [2]
  protein stability index: 0.614

## RVTNLDAIYFRI
Saccharomyces cerevisiae [1]
  protein stability index: 0.55
Saccharomyces cerevisiae [2]
  protein stability index: 0.677

## RVTREDAIYFRI
Saccharomyces cerevisiae [1]
  protein stability index: 0.625
Saccharomyces cerevisiae [2]
  protein stability index: 0.699

## RVTRLCAIYFRI
Saccharomyces cerevisiae [1]
  protein stability index: 0.178
Saccharomyces cerevisiae [2]
  protein stability index: 0.339

## RVTRLDAHYFRI
Saccharomyces cerevisiae [1]
  protein stability index: 0.684
Saccharomyces cerevisiae [2]
  protein stability index: 0.71

## RVTRLDAIEFRI
Saccharomyces cerevisiae [1]
  protein stability index: 0.704
Saccharomyces cerevisiae [2]
  protein stability index: 0.7

## RVTRLDAIMFRI
Saccharomyces cerevisiae [1]
  protein stability index: 0.496
Saccharomyces cerevisiae [2]
  protein stability index: 0.686

## RVTRLDAIYFAI
Saccharomyces cerevisiae [1]
  protein stability index: 0.481
Saccharomyces cerevisiae [2]
  protein stability index: 0.542

## RVTRLDAIYFFI
Saccharomyces cerevisiae [1]
  protein stability index: 0.471
Saccharomyces cerevisiae [2]
  protein stability index: 0.495

## RVTRLDAIYFMI
Saccharomyces cerevisiae [1]
  protein stability index: 0.162
Saccharomyces cerevisiae [2]
  protein stability index: 0.173

## RVTRLDAIYFRIL
Saccharomyces cerevisiae [1]
  protein stability index: 0.0595
Saccharomyces cerevisiae [2]
  protein stability index: 0.0992

## RVTRLDAIYFRW
Saccharomyces cerevisiae [1]
  protein stability index: 0.472
Saccharomyces cerevisiae [2]
  protein stability index: 0.709

## RVTRLDAIYFRY
Saccharomyces cerevisiae [1]
  protein stability index: 0.447
Saccharomyces cerevisiae [2]
  protein stability index: 0.722

## RVTRLDAIYFVI
Saccharomyces cerevisiae [1]
  protein stability index: 0.194
Saccharomyces cerevisiae [2]
  protein stability index: 0.233

## RVTRLDAIYHRI
Saccharomyces cerevisiae [1]
  protein stability index: 0.662
Saccharomyces cerevisiae [2]
  protein stability index: 0.723

## RVTRLDAIYIRI
Saccharomyces cerevisiae [1]
  protein stability index: 0.325
Saccharomyces cerevisiae [2]
  protein stability index: 0.683

## RVTRLDAIYQRI
Saccharomyces cerevisiae [1]
  protein stability index: 0.664
Saccharomyces cerevisiae [2]
  protein stability index: 0.707

## RVTRLDAIYTRI
Saccharomyces cerevisiae [1]
  protein stability index: 0.688
Saccharomyces cerevisiae [2]
  protein stability index: 0.716

## RVTRLDAIYYRI
Saccharomyces cerevisiae [1]
  protein stability index: 0.582
Saccharomyces cerevisiae [2]
  protein stability index: 0.716

## RVTRLDAPYFRI
Saccharomyces cerevisiae [1]
  protein stability index: 0.676
Saccharomyces cerevisiae [2]
  protein stability index: 0.722

## RVTRLDAQYFRI
Saccharomyces cerevisiae [1]
  protein stability index: 0.668
Saccharomyces cerevisiae [2]
  protein stability index: 0.683

## RVTSLDAIYFRI
Saccharomyces cerevisiae [1]
  protein stability index: 0.55
Saccharomyces cerevisiae [2]
  protein stability index: 0.669

## RVYRLDAIYFRI
Saccharomyces cerevisiae [1]
  protein stability index: 0.321
Saccharomyces cerevisiae [2]
  protein stability index: 0.587

## SLYMCSVGCWFR
Saccharomyces cerevisiae [1]
  protein stability index: 0.387
Saccharomyces cerevisiae [2]
  protein stability index: 0.644

## TITLPMCPLLLR
Saccharomyces cerevisiae [1]
  protein stability index: 0.296
Saccharomyces cerevisiae [2]
  protein stability index: 0.633

## TLYMCSVGCWFR
Saccharomyces cerevisiae [1]
  protein stability index: 0.375
Saccharomyces cerevisiae [2]
  protein stability index: 0.614

## TVTRLDAIYFRI
Saccharomyces cerevisiae [1]
  protein stability index: 0.364
Saccharomyces cerevisiae [2]
  protein stability index: 0.707
